B1: GL11: A2AR mutant L48A-S90A (protein, UniProt P29274 1-412, looked up, variant L48A S90A)
Adenosine receptor A2a: MPIMGSSVYITVELAIAVLAILGNVLVCWAVWLNSNLQNVTNYFVVSAAAADIAVGVLAIPFAITISTGFCAACHGCLFIACFVLVLTQASIFSLLAIAIDRYIAIRIPLRYNGLVTGTRAKGIIAICWVLSFAIGLTPMLGWNNCGQPKEGKNHSQGCGEGQVACLFEDVVPMNYMVYFNFFACVLVPLLLMLGVYLRIFLAARRQLKQMESQPLPGERARSTLQKEVHAAKSLAIIVGLFALCWLPLHIINCFTFFCPDCSHAPLWLMYLAIVLSHTNSVVNPFIYAYRIREFRQTFRKIIRSHVLRQQEPFKAAGTSARVLAAHGSDGEQVSLRLNGHPPGVWANGSAPHPERRPNGYALGLVSGGSAQESQGNTGLPDVELLSHELKGVCPEPPGLDDPLAQDGAGVS
B2: GL14: A2AR mutant L48A-A236L (protein, UniProt P29274 1-412, looked up, variant L48A A236L)
Adenosine receptor A2a: MPIMGSSVYITVELAIAVLAILGNVLVCWAVWLNSNLQNVTNYFVVSAAAADIAVGVLAIPFAITISTGFCAACHGCLFIACFVLVLTQSSIFSLLAIAIDRYIAIRIPLRYNGLVTGTRAKGIIAICWVLSFAIGLTPMLGWNNCGQPKEGKNHSQGCGEGQVACLFEDVVPMNYMVYFNFFACVLVPLLLMLGVYLRIFLAARRQLKQMESQPLPGERARSTLQKEVHAAKSLLIIVGLFALCWLPLHIINCFTFFCPDCSHAPLWLMYLAIVLSHTNSVVNPFIYAYRIREFRQTFRKIIRSHVLRQQEPFKAAGTSARVLAAHGSDGEQVSLRLNGHPPGVWANGSAPHPERRPNGYALGLVSGGSAQESQGNTGLPDVELLSHELKGVCPEPPGLDDPLAQDGAGVS
B3: GL15: A2AR mutant L48A-I238A (protein, UniProt P29274 1-412, looked up, variant L48A I238A)
Adenosine receptor A2a: MPIMGSSVYITVELAIAVLAILGNVLVCWAVWLNSNLQNVTNYFVVSAAAADIAVGVLAIPFAITISTGFCAACHGCLFIACFVLVLTQSSIFSLLAIAIDRYIAIRIPLRYNGLVTGTRAKGIIAICWVLSFAIGLTPMLGWNNCGQPKEGKNHSQGCGEGQVACLFEDVVPMNYMVYFNFFACVLVPLLLMLGVYLRIFLAARRQLKQMESQPLPGERARSTLQKEVHAAKSLAIAVGLFALCWLPLHIINCFTFFCPDCSHAPLWLMYLAIVLSHTNSVVNPFIYAYRIREFRQTFRKIIRSHVLRQQEPFKAAGTSARVLAAHGSDGEQVSLRLNGHPPGVWANGSAPHPERRPNGYALGLVSGGSAQESQGNTGLPDVELLSHELKGVCPEPPGLDDPLAQDGAGVS
B4: GL17: A2AR mutant L48A-F242A (protein, UniProt P29274 1-412, looked up, variant L48A F242A)
Adenosine receptor A2a: MPIMGSSVYITVELAIAVLAILGNVLVCWAVWLNSNLQNVTNYFVVSAAAADIAVGVLAIPFAITISTGFCAACHGCLFIACFVLVLTQSSIFSLLAIAIDRYIAIRIPLRYNGLVTGTRAKGIIAICWVLSFAIGLTPMLGWNNCGQPKEGKNHSQGCGEGQVACLFEDVVPMNYMVYFNFFACVLVPLLLMLGVYLRIFLAARRQLKQMESQPLPGERARSTLQKEVHAAKSLAIIVGLAALCWLPLHIINCFTFFCPDCSHAPLWLMYLAIVLSHTNSVVNPFIYAYRIREFRQTFRKIIRSHVLRQQEPFKAAGTSARVLAAHGSDGEQVSLRLNGHPPGVWANGSAPHPERRPNGYALGLVSGGSAQESQGNTGLPDVELLSHELKGVCPEPPGLDDPLAQDGAGVS
B5: GL19: A2AR mutant L48A-V282A (protein, UniProt P29274 1-412, looked up, variant L48A V282A)
Adenosine receptor A2a: MPIMGSSVYITVELAIAVLAILGNVLVCWAVWLNSNLQNVTNYFVVSAAAADIAVGVLAIPFAITISTGFCAACHGCLFIACFVLVLTQSSIFSLLAIAIDRYIAIRIPLRYNGLVTGTRAKGIIAICWVLSFAIGLTPMLGWNNCGQPKEGKNHSQGCGEGQVACLFEDVVPMNYMVYFNFFACVLVPLLLMLGVYLRIFLAARRQLKQMESQPLPGERARSTLQKEVHAAKSLAIIVGLFALCWLPLHIINCFTFFCPDCSHAPLWLMYLAIVLSHTNSAVNPFIYAYRIREFRQTFRKIIRSHVLRQQEPFKAAGTSARVLAAHGSDGEQVSLRLNGHPPGVWANGSAPHPERRPNGYALGLVSGGSAQESQGNTGLPDVELLSHELKGVCPEPPGLDDPLAQDGAGVS
B6: GL20: A2AR mutant L48A-Q89A-V12A (protein, UniProt P29274 1-412, looked up, variant L48A Q89A V12A)
Adenosine receptor A2a: MPIMGSSVYITAELAIAVLAILGNVLVCWAVWLNSNLQNVTNYFVVSAAAADIAVGVLAIPFAITISTGFCAACHGCLFIACFVLVLTASSIFSLLAIAIDRYIAIRIPLRYNGLVTGTRAKGIIAICWVLSFAIGLTPMLGWNNCGQPKEGKNHSQGCGEGQVACLFEDVVPMNYMVYFNFFACVLVPLLLMLGVYLRIFLAARRQLKQMESQPLPGERARSTLQKEVHAAKSLAIIVGLFALCWLPLHIINCFTFFCPDCSHAPLWLMYLAIVLSHTNSVVNPFIYAYRIREFRQTFRKIIRSHVLRQQEPFKAAGTSARVLAAHGSDGEQVSLRLNGHPPGVWANGSAPHPERRPNGYALGLVSGGSAQESQGNTGLPDVELLSHELKGVCPEPPGLDDPLAQDGAGVS

What follows are molecules tested on [^3H]NECA-bound A2AR (assay: Thermostability assay of detergent-solubilised receptor with [3H]NECA bound (ligand plus format)).
Type: physicochemical, human
Procedure: […]. After solubilisation in DDM, A2AR was bound to Ni^2+-NTA resin, washed to reduce the DDM concentration and then eluted (see Methods). […]. An aliquot of E. coli cells (14 mL) was thawed on ice and resupended in 500 μL of buffer A [50 mM Tris–HCl (pH 7.4), 0.4 M NaCl, 250 μg/mL lysozyme (Sigma) and 1 mg/mL DNase I (Sigma), supplemented with complete ethylenediaminetetraacetic acid (EDTA)-free Protease inhibitor cocktail (Roche)] and incubated for 1 h at 4 °C. Samples were then sonicated for 1 min at 4 °C using a cup-horn sonicator. The receptors were solubilised by adding 1% DDM and incubated for 1 h at 4 °C. Insoluble material was removed by centrifugation (5 min, 13,000g, 4 °C). The solubilised receptors were partially purified with Ni-NTA agarose (Qiagen). Agarose beads (300 μL) pre-equilibrated in buffer A were added to 700 μL of solubilised receptor. […].
The sample was incubated for 45 min at 4 °C, then 30 min at the specified temperature and then 30 min at 4 °C. Receptor-bound and free radioligands were separated as previously described on mini gel-filtration columns.[26] Receptor-bound ligands were transferred to a 96-well plate (PerkinElmer) and mixed with 200 μL of Optiphase supermix (PerkinElmer). The bound ^3H-labeled ligand was determined using a 1450 Microbeta Trilux counter (1 min per sample).
For all the thermostabilisation studies carried out in our laboratory, the apparent Tm is the temperature for which 50% of the solubilised receptor remains folded after 30 min of incubation. The rate constant of the protein denaturation is a function of the temperature, and consequently, thermal denaturation of a protein can be compared to a chemical reaction for which the rate of the reaction is dependant on the temperature. Arrhenius established that any chemical reaction is temperature dependant. […]. The reference measurement representing the total binding activity of the sample A0 was considered to be measured at 4 °C. From the graphical representation t = Log10(t1/2) (Fig. 2c), we could extract a half-life for each construct at any temperature to define the improvement in stability of the various mutants compared to WT A2AR.
For B1, the “Apparent Tm in DDM, Single measurement” value was 46 °C. For B2, the “Apparent Tm in DDM, Single measurement” value was 40.5 °C. B3 was tested, and the “Apparent Tm in DDM, Single measurement” value was 42.5 °C. B4 was tested, and the “Apparent Tm in DDM, Single measurement” value was 39.5 °C. B5 was tested, and the “Apparent Tm in DDM, Single measurement” value was 40 °C. B6 was tested, and the “Apparent Tm in DDM, Single measurement” value was 46 °C.
